Data as given in paper PMC11094772.
Read-outs that look alike come from different tables or passages of the source.

Assays:
Experiment in all cases: BLI
[1] = molecular target: KRAS4B (residues 1-185, C118S) tethered to nanodiscs (UniProt P01116)
[2] = molecular target: KRAS4B (residues 1-185, C118S) tethered to nanodiscs (UniProt P01116); remark: listed apart in the source
[3] = molecular target: KRAS4B (residues 1-185, C118S) tethered to nanodiscs (UniProt P01116); remark: listed apart in the source
[4] = molecular target: KRAS4B (residues 1-185, C118S) tethered to nanodiscs (UniProt P01116); remark: listed apart in the source

Substance	Kd [1] [nM]	koff [1] [s⁻¹]	kon [1] [M⁻¹ s⁻¹]	Kd [2] [nM]	koff [2] [s⁻¹]	kon [2] [M⁻¹ s⁻¹]	Kd [3] [nM]	koff [3] [s⁻¹]	kon [3] [M⁻¹ s⁻¹]	Kd [4] [nM]	koff [4] [s⁻¹]	kon [4] [M⁻¹ s⁻¹]
D-BRAF: dimeric MBP-BRAF(S365A):14-3-3 complex (2 MBP-BRAF: 2 14-3-3) (from UniProt P15056 1-766)	28.6	0.00269	94100	29.1	0.0034	106000	18.5	0.00185	105000	57.4	0.00395	69000
tagless monomeric BRAF(WT):14-3-3 complex (MBP removed by TEV protease) (from UniProt P15056 1-766)										35.5		
tagless dimeric BRAF(S365A):14-3-3 complex (MBP removed by TEV protease) (from UniProt P15056 1-766)										25.5		
M-BRAF: monomeric MBP-BRAF(WT):14-3-3 complex (1 MBP-BRAF: 2 14-3-3) (from UniProt P15056 1-766)	93.3	0.00235	25400	65.5	0.00266	44200	68.2	0.0016	24000	177	0.00372	21100
